Assay results reported in patent publication US20160257760A1 (OXFORD BIOTHERAPEUTICS, published 2016).

What was measured:
Assay in all cases: peptide microarray, 1 µg/mL LY75_A1, anti-human IgG Alexa 647
[1] = biological target: T1, LY75 tryptic peptide GWHFYDDR (765-772)
T1 construct: Tryptic peptide of recombinant LY75, eluted from LY75_A1 beads and identified by LC-MS/MS
T1 peptide: GWHFYDDR
Protocol: (§1) The chip comprised three panels such that the experiment was performed in triplicate. […] The binding assay was performed under the following conditions:—The microarray comprising the contiguous peptides in triplicate was washed with 1 mL of binding buffer at 4° C. for 20 min. […] The array was again washed with 0.5 mL of washing buffer at 4° C. for 30 min.

[2] = biological target: T2, YDDREFIY
T2 peptide: YDDREFIY
Protocol: as §1

[3] = biological target: T3, PWRRGWHF
T3 peptide: PWRRGWHF
Protocol: as §1

[4] = biological target: T4, YLNNLYKI
T4 peptide: YLNNLYKI
Protocol: as §1

[5] = biological target: T5, TLTWHSAK
T5 peptide: TLTWHSAK
Protocol: as §1

[6] = biological target: T6, IPKTLTWH
T6 peptide: IPKTLTWH
Protocol: as §1

[7] = biological target: T7, NNLYKIIP
T7 peptide: NNLYKIIP
Protocol: as §1

[8] = biological target: T8, KIIPKTLT
T8 peptide: KIIPKTLT
Protocol: as §1

[9] = biological target: T9, YKIIPKTL
T9 peptide: YKIIPKTL
Protocol: as §1

[10] = biological target: T10, KTLTWHSA
T10 peptide: KTLTWHSA
Protocol: as §1

[11] = biological target: T11, VKYLNNLY
T11 peptide: VKYLNNLY
Protocol: as §1

[12] = biological target: T12, LYKIIPKT
T12 peptide: LYKIIPKT
Protocol: as §1

[13] = biological target: T13, IIPKTLTW
T13 peptide: IIPKTLTW
Protocol: as §1

[14] = biological target: T14, NLYKIIPK
T14 peptide: NLYKIIPK
Protocol: as §1

[15] = biological target: T15, PKTLTWHS
T15 peptide: PKTLTWHS
Protocol: as §1

[16] = biological target: T16, LNNLYKII
T16 peptide: LNNLYKII
Protocol: as §1

[17] = biological target: T17, FTYSRYPW
T17 peptide: FTYSRYPW
Protocol: as §1

[18] = biological target: T18, RYPWHRFP
T18 peptide: RYPWHRFP
Protocol: as §1

[19] = biological target: T19, HRFPVTFG
T19 peptide: HRFPVTFG
Protocol: as §1

[20] = biological target: T20, SRYPWHRF
T20 peptide: SRYPWHRF
Protocol: as §1

[21] = biological target: T21, DDHFTYSR
T21 peptide: DDHFTYSR
Protocol: as §1

[22] = biological target: T22, HFTYSRYP
T22 peptide: HFTYSRYP
Protocol: as §1

[23] = biological target: T23, FVSLCQKY
T23 peptide: FVSLCQKY
Protocol: as §1

[24] = biological target: T24, QKYSEVKS
T24 peptide: QKYSEVKS
Protocol: as §1

[25] = biological target: T25, TSCSERHF
T25 peptide: TSCSERHF
Protocol: as §1

[26] = biological target: T26, FTSCSERH
T26 peptide: FTSCSERH
Protocol: as §1

[27] = biological target: T27, SLCQKYSE
T27 peptide: SLCQKYSE
Protocol: as §1

[28] = biological target: T28, LCQKYSEV
T28 peptide: LCQKYSEV
Protocol: as §1

[29] = biological target: T29, VSLCQKYS
T29 peptide: VSLCQKYS
Protocol: as §1

[30] = biological target: T30, ERHFVSLC
T30 peptide: ERHFVSLC
Protocol: as §1

[31] = biological target: T31, RHFVSLCQ
T31 peptide: RHFVSLCQ
Protocol: as §1

[32] = biological target: T32, SCSERHFV
T32 peptide: SCSERHFV
Protocol: as §1

[33] = biological target: T33, SERHFVSL
T33 peptide: SERHFVSL
Protocol: as §1

[34] = biological target: T34, CQKYSEVK
T34 peptide: CQKYSEVK
Protocol: as §1

B1: LY75_A1 monoclonal antibody (antibody, V domains shown)
VH: EVQLVESGGGLVKPGGSLRLSCAASGFTYSNAWMSWVRQAPGKGLEWVGRIKSKTDGGTTDYAAPVQGRFTISRDDSKNTLYLQMNSLKTEDTAVYYCTIFGVVSFDYWGQGTLVTVSS
VL: DVQMTQSPSSLSASVGDRVTITCRASQSISDYLSWYQQRPGKAPNLLIYAASNLKTGVPSRFSGSGSGTDFTLTISTLQPEDFATYYCQQSYRSPWTFGQGTKVEIKR
notes: also called LY75A1 antibody; LY75_A1 antibody
- binding result [1]: binds
- binding result [2]: binds
- binding result [3]: binds
- binding result [4]: binds
- binding result [5]: no binding (tested: 1 µg/mL)
- binding result [6]: no binding (tested: 1 µg/mL)
- binding result [7]: no binding (tested: 1 µg/mL)
- binding result [8]: no binding (tested: 1 µg/mL)
- binding result [9]: no binding (tested: 1 µg/mL)
- binding result [10]: no binding (tested: 1 µg/mL)
- binding result [11]: binds
- binding result [12]: no binding (tested: 1 µg/mL)
- binding result [13]: no binding (tested: 1 µg/mL)
- binding result [14]: no binding (tested: 1 µg/mL)
- binding result [15]: no binding (tested: 1 µg/mL)
- binding result [16]: binds
- binding result [17]: no binding (tested: 1 µg/mL)
- binding result [18]: binds
- binding result [19]: binds
- binding result [20]: binds
- binding result [21]: binds
- binding result [22]: binds
- binding result [23]: binds
- binding result [24]: no binding (tested: 1 µg/mL)
- binding result [25]: binds
- binding result [26]: binds
- binding result [27]: no binding (tested: 1 µg/mL)
- binding result [28]: no binding (tested: 1 µg/mL)
- binding result [29]: binds
- binding result [30]: no binding (tested: 1 µg/mL)
- binding result [31]: no binding (tested: 1 µg/mL)
- binding result [32]: binds
- binding result [33]: binds
- binding result [34]: no binding (tested: 1 µg/mL)
